Test results published in US20030017991A1 (PHARMACIA AND UPJOHN COMPANY A DELAWARE, published 2003).
Non-standard residues stand in square brackets, D forms with d. No end group written: not given here. Nle = CCCC[C@H](N)C(=O)O

Target: human Asp2 aspartyl protease (Hu-Asp2), recombinant enzyme used in the in vitro cleavage assays (human, UniProt P56817 22-453, limits assumed)
Experiment: cell-based or functional assay

human Asp2 aspartyl protease (Hu-Asp2), recombinant enzyme used in the in vitro cleavage assays, sequence (P56817 22-453 Q214H limits assumed): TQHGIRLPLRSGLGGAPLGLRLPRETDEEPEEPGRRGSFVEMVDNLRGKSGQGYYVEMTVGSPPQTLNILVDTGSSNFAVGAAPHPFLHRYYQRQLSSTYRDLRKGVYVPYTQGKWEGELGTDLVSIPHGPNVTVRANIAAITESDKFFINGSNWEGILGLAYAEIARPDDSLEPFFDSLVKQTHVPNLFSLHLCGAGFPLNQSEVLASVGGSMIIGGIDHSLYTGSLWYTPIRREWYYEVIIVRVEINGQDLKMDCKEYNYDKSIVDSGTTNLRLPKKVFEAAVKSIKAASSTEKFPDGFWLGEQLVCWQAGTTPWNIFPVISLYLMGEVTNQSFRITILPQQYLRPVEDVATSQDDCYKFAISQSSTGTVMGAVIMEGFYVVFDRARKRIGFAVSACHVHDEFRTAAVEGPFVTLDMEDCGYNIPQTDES

| Binder | activity against peptide #3 (SEQ ID NO:134) | activity against SEVSY-EVEFR (SEQ ID NO:141), peptide activity assay |
| --- | --- | --- |
| KTIN[Nle]DVDPS [KTINnle-DVDPS] | ~10 fold lower |  |
| SEVNYEVEFR [SEVNY-EVEFR] |  | 0.2 ratio |
